Laboratory results: patent US20250161472A1 (BIOATLA, published 2025)
Where a chain is given by its changes, count along the chain named. Like-named read-outs stand apart in the source and are kept apart here. Each block holds one binder with its values, some of them ahead of it.

Assays:
Set-up in all cases: unit not given here
[1] = biological target: T1, human ROR2 (receptor tyrosine kinase-like orphan receptor 2) (human, UniProt Q01974 34-403, limits assumed); assay: affinity ELISA on human ROR2, pH 6.0
T1 construct: Antigen of the ELISA, SPR and pH titration assays; also called hROR2
T1 sequence (Q01974 34-403 limits assumed): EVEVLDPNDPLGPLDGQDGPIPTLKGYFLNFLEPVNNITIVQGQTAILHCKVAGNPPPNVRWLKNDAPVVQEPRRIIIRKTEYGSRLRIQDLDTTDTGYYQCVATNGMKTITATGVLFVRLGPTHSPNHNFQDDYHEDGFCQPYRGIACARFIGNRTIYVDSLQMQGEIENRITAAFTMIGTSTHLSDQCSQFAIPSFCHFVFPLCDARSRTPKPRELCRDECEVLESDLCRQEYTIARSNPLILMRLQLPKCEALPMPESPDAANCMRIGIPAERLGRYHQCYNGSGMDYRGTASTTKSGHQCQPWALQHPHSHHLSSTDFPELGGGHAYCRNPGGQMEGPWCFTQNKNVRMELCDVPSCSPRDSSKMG

[2] = biological target: T1, human ROR2 (receptor tyrosine …); assay: affinity ELISA on human ROR2, pH 7.4
[3] = biological target: T1, human ROR2 (receptor tyrosine …); assay: affinity ELISA on human ROR2, pH 6.0; remark: listed apart in the source
[4] = biological target: T1, human ROR2 (receptor tyrosine …); assay: affinity ELISA on human ROR2, pH 7.4; remark: listed apart in the source

B1: LC-G049C (antibody, V domains shown)
VH: EVQLQQSGPELVKPGASVKISCKTSGYTFTEYTMHWMKQSHRKSLEWIGGINTNNGGTGYNQKFKGKATLTVDKSSSTAYMELRSLTSEDSAVYFCARGSLYSYGNSYFDYWGQGTLVTVSS
VL: QIVLTQSPAIMSASPGEKVTITCSATSSVSYMHWFQQKPGTSPKLWIYCTSNLASGVPARFSGSGSGTSYSLTISRMEAEDAATYYCQQRSSYPFTFGQGTKVEIK
notes: CPE single point mutant of parent VL 48.6-LC-WT
Affinity ELISA, pH 6.0 [1]: 0.468
Affinity ELISA, pH 7.4 [2]: 0.133

B2: HC-A097I (antibody, V domains shown)
VH: B1 VH with A97I
VL: B1 VL with C49G
notes: CPE single point mutant of parent VH 48.6-HC-WT
Affinity ELISA, pH 6.0 [3]: 1.89
Affinity ELISA, pH 7.4 [4]: 1.73

B4: HC-G050S (antibody, V domains shown)
VH: B1 VH with G50S
VL: B1 VL with C49G
notes: as for B2
Affinity ELISA, pH 6.0 [3]: 0.828
Affinity ELISA, pH 7.4 [4]: 0.318

B7: HC-M034D (antibody, V domains shown)
VH: B1 VH with M34D
VL: B1 VL with C49G
notes: as for B2
Affinity ELISA, pH 6.0 [3]: 1.24
Affinity ELISA, pH 7.4 [4]: 0.211

B8: HC-N052V (antibody, V domains shown)
VH: B1 VH with N52V
VL: B1 VL with C49G
notes: as for B2
Affinity ELISA, pH 6.0 [3]: 0.87
Affinity ELISA, pH 7.4 [4]: 0.34

B10: HC-A097M (antibody, V domains shown)
VH: B1 VH with A97M
VL: B1 VL with C49G
notes: as for B2
Affinity ELISA, pH 6.0 [3]: 1.98
Affinity ELISA, pH 7.4 [4]: 1.7

B14: HC-G099E (antibody, V domains shown)
VH: B1 VH with G99E
VL: B1 VL with C49G
notes: as for B2
Affinity ELISA, pH 6.0 [3]: 0.616
Affinity ELISA, pH 7.4 [4]: 0.421

B15: HC-M034Y (antibody, V domains shown)
VH: B1 VH with M34Y
VL: B1 VL with C49G
notes: as for B2
Affinity ELISA, pH 6.0 [3]: 0.903
Affinity ELISA, pH 7.4 [4]: 0.391

B16: HC-D110L (antibody, V domains shown)
VH: B1 VH with D110L
VL: B1 VL with C49G
notes: as for B2
Affinity ELISA, pH 6.0 [3]: 1.68
Affinity ELISA, pH 7.4 [4]: 1.4

B18: HC-N052C (antibody, V domains shown)
VH: B1 VH with N52C
VL: B1 VL with C49G
notes: as for B2
Affinity ELISA, pH 6.0 [3]: 0.995
Affinity ELISA, pH 7.4 [4]: 0.431

B22: HC-L101F (antibody, V domains shown)
VH: B1 VH with L101F
VL: B1 VL with C49G
notes: as for B2
Affinity ELISA, pH 6.0 [3]: 1.46
Affinity ELISA, pH 7.4 [4]: 1.41

B23: HC-T033C (antibody, V domains shown)
VH: B1 VH with T33C
VL: B1 VL with C49G
notes: as for B2
Affinity ELISA, pH 6.0 [3]: 0.626
Affinity ELISA, pH 7.4 [4]: 0.232

B25: HC-A097T (antibody, V domains shown)
VH: B1 VH with A97T
VL: B1 VL with C49G
notes: as for B2
Affinity ELISA, pH 6.0 [3]: 1.83
Affinity ELISA, pH 7.4 [4]: 1.69

B26: HC-F029E (antibody, V domains shown)
VH: B1 VH with F29E
VL: B1 VL with C49G
notes: as for B2
Affinity ELISA, pH 6.0 [3]: 1.34
Affinity ELISA, pH 7.4 [4]: 0.742

B28: HC-R098H (antibody, V domains shown)
VH: B1 VH with R98H
VL: B1 VL with C49G
notes: as for B2
Affinity ELISA, pH 6.0 [3]: 0.928
Affinity ELISA, pH 7.4 [4]: 0.353

B29: HC-I051E (antibody, V domains shown)
VH: B1 VH with I51E
VL: B1 VL with C49G
notes: as for B2
Affinity ELISA, pH 6.0 [3]: 1.04
Affinity ELISA, pH 7.4 [4]: 0.1

B30: HC-N052L (antibody, V domains shown)
VH: B1 VH with N52L
VL: B1 VL with C49G
notes: as for B2
Affinity ELISA, pH 6.0 [3]: 0.911
Affinity ELISA, pH 7.4 [4]: 0.433

B31: HC-A097S (antibody, V domains shown)
VH: B1 VH with A97S
VL: B1 VL with C49G
notes: as for B2
Affinity ELISA, pH 6.0 [3]: 1.67
Affinity ELISA, pH 7.4 [4]: 1.69

B32: HC-R098Q (antibody, V domains shown)
VH: B1 VH with R98Q
VL: B1 VL with C49G
notes: as for B2
Affinity ELISA, pH 6.0 [3]: 0.799
Affinity ELISA, pH 7.4 [4]: 0.276

B33: HC-M034E (antibody, V domains shown)
VH: B1 VH with M34E
VL: B1 VL with C49G
notes: as for B2
Affinity ELISA, pH 6.0 [3]: 1.17
Affinity ELISA, pH 7.4 [4]: 0.185

B34: HC-G105D (antibody, V domains shown)
VH: B1 VH with G105D
VL: B1 VL with C49G
notes: as for B2
Affinity ELISA, pH 6.0 [3]: 0.509
Affinity ELISA, pH 7.4 [4]: 0.379

B35: HC-S103G (antibody, V domains shown)
VH: B1 VH with S103G
VL: B1 VL with C49G
notes: as for B2
Affinity ELISA, pH 6.0 [3]: 0.794
Affinity ELISA, pH 7.4 [4]: 0.655

Next, values leading:

Affinity ELISA, pH 6.0 [3]: 0.54
Affinity ELISA, pH 7.4 [4]: 0.157
B3: HC-T053E (antibody, V domains shown)
VH: B1 VH with T53E
VL: B1 VL with C49G
notes: as for B2

Affinity ELISA, pH 6.0 [1]: 1.23
Affinity ELISA, pH 7.4 [2]: 1.18
B5: LC-S092V (antibody, V domains shown)
VH: B1 VH
VL: B1 VL with C49G, S92V
notes: as for B1

Affinity ELISA, pH 6.0 [3]: 1.11
Affinity ELISA, pH 7.4 [4]: 0.222
B6: HC-T053D (antibody, V domains shown)
VH: B1 VH with T53D
VL: B1 VL with C49G
notes: as for B2

Affinity ELISA, pH 6.0 [1]: 0.489
Affinity ELISA, pH 7.4 [2]: 0.215
B9: LC-F097E (antibody, V domains shown)
VH: B1 VH
VL: B1 VL with C49G, F97E
notes: as for B1

Affinity ELISA, pH 6.0 [1]: 0.56
Affinity ELISA, pH 7.4 [2]: 0.256
B11: LC-R090H (antibody, V domains shown)
VH: B1 VH
VL: B1 VL with C49G, R90H
notes: as for B1

Affinity ELISA, pH 6.0 [1]: 1.13
Affinity ELISA, pH 7.4 [2]: 1.12
B12: LC-S092D (antibody, V domains shown)
VH: B1 VH
VL: B1 VL with C49G, S92D
notes: as for B1

Affinity ELISA, pH 6.0 [3]: 1.86
Affinity ELISA, pH 7.4 [4]: 1.4
B13: HC-Y111T (antibody, V domains shown)
VH: B1 VH with Y111T
VL: B1 VL with C49G
notes: as for B2

Affinity ELISA, pH 6.0 [1]: 0.438
Affinity ELISA, pH 7.4 [2]: 0.251
B17: LC-Q089E (antibody, V domains shown)
VH: B1 VH
VL: B1 VL with C49G, Q89E
notes: as for B1

Affinity ELISA, pH 6.0 [1]: 0.733
Affinity ELISA, pH 7.4 [2]: 0.252
B19: LC-S030D (antibody, V domains shown)
VH: B1 VH
VL: B1 VL with S30D, C49G
notes: as for B1

Affinity ELISA, pH 6.0 [1]: 1.87
Affinity ELISA, pH 7.4 [2]: 0.118
B20: LC-G049H (antibody, V domains shown)
VH: B1 VH
VL: B1 VL with C49H
notes: as for B1

Affinity ELISA, pH 6.0 [1]: 1.1
Affinity ELISA, pH 7.4 [2]: 0.536
B21: LC-H033G (antibody, V domains shown)
VH: B1 VH
VL: B1 VL with H33G, C49G
notes: as for B1

Affinity ELISA, pH 6.0 [3]: 1.08
Affinity ELISA, pH 7.4 [4]: 0.793
B24: HC-Y111C (antibody, V domains shown)
VH: B1 VH with Y111C
VL: B1 VL with C49G
notes: as for B2

Affinity ELISA, pH 6.0 [3]: 1.47
Affinity ELISA, pH 7.4 [4]: 0.51
B27: HC-Y032D (antibody, V domains shown)
VH: B1 VH with Y32D
VL: B1 VL with C49G
notes: as for B2

Affinity ELISA, pH 6.0 [3]: 1.75
Affinity ELISA, pH 7.4 [4]: 1.7
B36: HC-W112L (antibody, V domains shown)
VH: B1 VH with W112L
VL: B1 VL with C49G
notes: as for B2

Affinity ELISA, pH 6.0 [1]: 0.66
Affinity ELISA, pH 7.4 [2]: 0.268
B37: LC-G049P (antibody, V domains shown)
VH: B1 VH
VL: B1 VL with C49P
notes: as for B1

Affinity ELISA, pH 6.0 [1]: 0.69
Affinity ELISA, pH 7.4 [2]: 0.332
B38: LC-H033L (antibody, V domains shown)
VH: B1 VH
VL: B1 VL with H33L, C49G
notes: as for B1
